Data on 13 molecules can be found in patent publication US20240034757A1 (OXFORD UNIVERSITY INNOVATION, published 2024).

One assay addresses CXCL12_HUMAN (human, UniProt P48061 22-89). In words: BLI.
Another assay addresses T1, CXCL14_HUMAN (human, UniProt O95715 35-111).
T1 sequence: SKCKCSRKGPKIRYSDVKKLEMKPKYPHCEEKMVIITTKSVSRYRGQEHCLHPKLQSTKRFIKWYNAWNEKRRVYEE
Put plainly: BLI.

For another assay, the target named is T2, CXCL9_HUMAN (human, UniProt Q07325 23-125).
T2 sequence: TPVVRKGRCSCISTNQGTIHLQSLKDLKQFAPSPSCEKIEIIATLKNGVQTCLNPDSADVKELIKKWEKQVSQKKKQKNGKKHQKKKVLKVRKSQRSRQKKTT
In words: BLI.

For assay [1], the target named is T3, CXCL11_HUMAN (human, UniProt O14625 22-94).
T3 sequence: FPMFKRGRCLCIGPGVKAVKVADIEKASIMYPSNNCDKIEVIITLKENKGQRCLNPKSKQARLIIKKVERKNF
In words: yeast surface display FACS re-test. Further: test concentration or dose not given here.

The next assay has as its target T4, CXCL7_HUMAN (human, UniProt P02775 59-128).
T4 sequence: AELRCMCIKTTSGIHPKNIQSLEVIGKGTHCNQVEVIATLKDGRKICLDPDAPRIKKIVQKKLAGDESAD
Put plainly: BLI [Cont.].

The target in assay [2] is T5, CXCL8_HUMAN (human, UniProt P10145 28-99).
T5 sequence: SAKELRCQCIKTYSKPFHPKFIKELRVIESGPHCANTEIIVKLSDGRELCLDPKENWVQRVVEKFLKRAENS
Put plainly: BLI [Cont.].

The target in the next assay is T6, CXCL4_HUMAN (human, UniProt P02776 32-101).
T6 sequence: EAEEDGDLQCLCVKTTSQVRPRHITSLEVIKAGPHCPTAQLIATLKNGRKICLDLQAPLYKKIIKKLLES
Put plainly: BLI [Cont.].

The target in a further assay is T7, CCL5_HUMAN (human, UniProt P13501 24-91).
T7 sequence: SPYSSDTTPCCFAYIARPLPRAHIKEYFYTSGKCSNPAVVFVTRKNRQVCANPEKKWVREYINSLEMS
Put plainly: yeast surface display FACS.

The target in the next assay is T8, CXCL5_HUMAN (human, UniProt P42830 41-114).
T8 sequence: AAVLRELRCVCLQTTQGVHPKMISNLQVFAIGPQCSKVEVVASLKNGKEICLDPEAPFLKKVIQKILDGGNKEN
In words: BLI [Cont.].

Assay [3] addresses T3, CXCL11_HUMAN. In words: BLI.
The next assay has as its target T9, CXCL13_HUMAN (human, UniProt O43927 23-109).
T9 sequence: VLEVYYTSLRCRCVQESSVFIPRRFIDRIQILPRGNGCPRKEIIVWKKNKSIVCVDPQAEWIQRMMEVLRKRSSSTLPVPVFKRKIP
In words: BLI.

Assay [4] concerns the target T10, CXCL10_HUMAN (human, UniProt P02778 22-98).
T10 sequence: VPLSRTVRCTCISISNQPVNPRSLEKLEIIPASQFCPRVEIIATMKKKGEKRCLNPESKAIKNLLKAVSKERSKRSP
Put plainly: BLI.

The target in assay [5] is T5, CXCL8_HUMAN. In words: yeast surface display FACS re-test. Further: test concentration or dose not given here.
The next assay has as its target T11, CXCL6_HUMAN (human, UniProt P80162 38-114).
T11 sequence: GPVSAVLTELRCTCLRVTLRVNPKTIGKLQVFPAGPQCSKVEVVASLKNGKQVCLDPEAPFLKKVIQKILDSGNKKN
Put plainly: BLI [Cont.].

Assay [6] has as its target T10, CXCL10_HUMAN. In words: yeast surface display FACS re-test. Further: test concentration or dose not given here.
The next assay has as its target T12, CXCL1_HUMAN (human, UniProt P09341 35-107).
T12 sequence: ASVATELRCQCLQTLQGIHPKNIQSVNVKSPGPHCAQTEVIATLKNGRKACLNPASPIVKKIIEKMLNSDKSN
In words: yeast surface display FACS re-test. Further: test concentration or dose not given here.

Sequence of CXCL12_HUMAN (P48061 22-89 limits assumed): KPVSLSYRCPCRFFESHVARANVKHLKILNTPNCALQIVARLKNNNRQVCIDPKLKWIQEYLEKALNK

B1: P1078_IXORI (other)
chain: GSKGSSAQQSSHDSIKAEFCETNCTMKTGGKWTQCHGGCFCVHVGNETVGRCIKLDGDYDYPSSKHEE
For the molecule B1, the binding result with CXCL12_HUMAN, with CXCL14_HUMAN, with CXCL9_HUMAN, in the assay with CXCL7_HUMAN, with CXCL8_HUMAN [2] and with CXCL4_HUMAN was “no binding (tested: 300 nM)” each time. Moreover, in the assay with CXCL11_HUMAN [1], the “% cells over threshold fluorescence” value amounted to 38%.

B2: P1063_AMBTR (other)
chain: QSEVGKNVPGCGDTETLEAPPQEKPPYYEYKDEEGCTQKVLESWFQAGERSTGRGQKKRGHGRRPSRVLRTVDCRKNCTVGITALPDGHLCLVPRGDPFTRGGAIKYGCYLGDCASGHCQHRYETVSCRLPAPDTTAKPYYVTPEK
As to B2, the binding result in the assay with CCL5_HUMAN is given as “binds”.

B3: P1090_IXORI (other)
chain: GSKELSGPESSENSIEAAFCDTNCTEGTDGVWSGCSAGCFCVHVGNSTVGRCMTFNGVDGG
In the case of B3, the binding result in the assay with CXCL12_HUMAN, with CXCL14_HUMAN, with CXCL9_HUMAN, with CXCL7_HUMAN, with CXCL8_HUMAN [2] and with CXCL4_HUMAN was “no binding (tested: 300 nM)” each time. In the assay with CXCL11_HUMAN [1], the “% cells over threshold fluorescence” value came to 32%. The same molecule showed a dissociation constant (Kd) in the assay with CXCL5_HUMAN of 43 nM.

B4: P1128_IXORI (other)
chain: KDDEHFSVDYCGMNCTQQEDGSWTACSGRNEECRCYHESGKKNGLCLSTTYIDFSQYGNPSDSDIAAASPRP
On to B4, for which the binding result in the assay with CXCL11_HUMAN [3], with CXCL12_HUMAN, with CXCL14_HUMAN, with CXCL13_HUMAN, in the assay with CXCL9_HUMAN and with CXCL10_HUMAN [4] was “no binding (tested: 300 nM)” in each case. Also, the binding result in the assay with CXCL6_HUMAN was “no binding (tested: 300 nM)”. Besides, the “% cells over threshold fluorescence” value with CXCL8_HUMAN [5] was determined as 53%.

B5: P1074_IXORI (other)
chain: GSKESSAHQSSDDSIKAEFCDAKCTMKTDGKWTQCHGGCFCVHVGNETEGRCMRLDGDYDYPSTQPEE
As to B5, the binding result with CXCL12_HUMAN, with CXCL14_HUMAN, with CXCL7_HUMAN and in the assay with CXCL8_HUMAN [2] was “no binding (tested: 300 nM)” each time. Also, the “% cells over threshold fluorescence” value with CXCL11_HUMAN [1] turned out to be 33%; in the assay with CXCL10_HUMAN [6] it was 71%.

B6: P1101_IXORI (other)
chain: HTTVAGSDEDIEVSYCGMNCTVESGKSSKCSPDCVCVHEGNERDGICISITYLGDLGNPLEDPSIDLATPLAPVFQSSK
In the case of B6, in the assay with CXCL10_HUMAN [6], the “% cells over threshold fluorescence” value came out at 75%.

B7: P675_IXORI (other)
chain: GSNQLSGPQSSANSNDAVFCDTNCTQGTDGAWSGCRGDCFCVHVGNSTEGRCIELIGDFDYSTPGAED
With B7, the binding result with CXCL12_HUMAN, in the assay with CXCL14_HUMAN, with CXCL9_HUMAN, with CXCL7_HUMAN and in the assay with CXCL8_HUMAN [2] was “no binding (tested: 300 nM)” throughout. Moreover, the “% cells over threshold fluorescence” value in the assay with CXCL11_HUMAN [1] is 55%.

B8: P942_IXORI (other)
chain: NQLSGPQSSANSNEAVFCDTNCTQGTDEAWSGCRGDCFCVYVGNSTEGRCMMLSGDFDYSTPGAED
Take B8: the binding result with CXCL12_HUMAN, in the assay with CXCL14_HUMAN, with CXCL9_HUMAN, with CXCL7_HUMAN and with CXCL8_HUMAN [2] was “no binding (tested: 300 nM)” each time. Besides, in the assay with CXCL11_HUMAN [1], the “% cells over threshold fluorescence” value amounted to 37%.

B9: P1174_IXORI (other)
chain: LNNENELFSVEYCGANCTQQDNGSWTKCKGNCTCYHEDGKRYGLCLSTEYTDFTQFPKPTSEEIADASPRPKETNSH
Consider B9, for which the binding result in the assay with CXCL12_HUMAN, in the assay with CXCL14_HUMAN, with CXCL13_HUMAN, with CXCL9_HUMAN, with CXCL10_HUMAN [4] and in the assay with CXCL6_HUMAN was “no binding (tested: 300 nM)” throughout. Besides, the “% cells over threshold fluorescence” value with CXCL8_HUMAN [5] came out at 29%.

B10: P1080_IXORI (other)
chain: SAGSKGSSAPQSSGDSVVAEFCDTNCTMKKDGKWTECNGDCFCVHVGNETVGRCMRLDGDYDYTSSKTTRRNKKTRNGLCRLDRNRTTVDYPERNTREP
In the case of B10, the “% cells over threshold fluorescence” value with CXCL11_HUMAN [1] is 45%; in the assay with CXCL10_HUMAN [6] it was 70%.

B11: P1168_IXORI (other)
chain: GQDTDGKEKSDEYELFTVEYCGTNCTQLENGSWTACTGKNGTCRCFHENDKKVGLCLSTEYTDFSEYPDPNSEEIKAASPLP
As to B11, the binding result with CXCL12_HUMAN, with CXCL13_HUMAN and with CXCL9_HUMAN was “no binding (tested: 300 nM)” throughout. Further, the “% cells over threshold fluorescence” value in the assay with CXCL1_HUMAN turned out to be 66%; in the assay with CXCL8_HUMAN [5], 24%.

B12: P1170_IXORI (other)
chain: LGDEDQLFSVEYCGTNCTQQDDGKWTPCSGKNGKCKCYHEDGKRYGLCLYTEYTDFSQYPNPEGSEIENTRPRP
With B12, the binding result with CXCL12_HUMAN, in the assay with CXCL14_HUMAN, in the assay with CXCL13_HUMAN, with CXCL9_HUMAN, with CXCL10_HUMAN [4] and with CXCL5_HUMAN was “no binding (tested: 300 nM)” throughout. Also, the binding result with CXCL6_HUMAN is reported as “no binding (tested: 300 nM)”. Also, the “% cells over threshold fluorescence” value with CXCL8_HUMAN [5] came to 81%.

B13: P1127_IXORI (other)
chain: AGKDDEHFSVDYCGMNCTQQEDGSWTACSGRNGECRCYHESGKRSGLCLSTTYIDFSEYGNLSDSDIAAASPRLSMKESH
Regarding B13, the binding result with CXCL12_HUMAN, with CXCL13_HUMAN and with CXCL9_HUMAN was “no binding (tested: 300 nM)” throughout. Also, the “% cells over threshold fluorescence” value in the assay with CXCL8_HUMAN [5] turned out to be 43%.
